Assay results reported in the DeepSol protein solubility set.

Assay: soluble on expression in E. coli; label from the status in PepcDB or PDB records

Row | Sequence | soluble on expression in E. coli
1 | MGSDKIHHHHHHMRNSLLVFTLDCQVKIDSKTVDCQTNIDSFLTPNSNLIIVEVEEIKRILLDQESFLNDKLRKERIITRHYNYSITYNNAYLITGPRRAGKSIFTVQLTKGKEILRVDFDDERLSGIKANELNKFLEAGYQIKKKIEVIILDEIQNVKGWELFVSRIREIYPVIVTGSNARLMSSEMATYLTGRHMDFLVFPFSFKEYLRYKDVKVEETTRGIARLKEELRNYLQQGGFPETFKFDKNEYLRNLYSDIITRDVIIRCKTRKDVKGLADFLLENIGKEVSTRRVGNAFNLSHQSVENYFYCLSNAYLFLFVKRFTGKSLERYTLPRKVYVIDTGLFNTYKRLQMGKMIENLVFLELYKRYGQEVYYYSNGNAEVDFIIKDKFAIQVTYDEGGIDDREYKGLVRFSERFKDYKLIIITWDREGKEIRNGKEITLIPLWKFLVKERFAGEMIGKES | not soluble
2 | MSLGKQLAALPADEVVEQLELAVERFLIQRKIPDQTELGFILNHLHYQTKKGGAVGVQELNIDKNIHQIAVIGDLHGDAESTKYIFQKVLLNKTFMESGMAVFLGDYVDRGQHGINVLTSILAAKVVYGDRVITIRGNHESENLNRRYGFLDEVSRAYGHAFYHKTIAPFFKLLPVAYVASVTSHTTLANRILFVHGGLPRNATLDTLILRSKVDIPSSNDITDQRYTHSLENCLPEDAVQDILWSDPSQTVHGKDTLNDYTKNPRGAGILYSSEFYRKFATENRVLAMFRGHQVVKNGFRRDFFNHYTVFSSSDYVGMKNKGAYAVLDVRCMRTTITSEVDVIGLQNYKEVNLAHCIHAYPVVQKPENEGHHHHHH | soluble
3 | MQTFVLATNSETVSQTLCSYLEGVLDLEDSVYAVNSQPGGDRTPPDAVADGKAALEVVSDRLGDQVSVETYQIIRGNSPADDIFDIAAEVDADELVIGVRKRSQTDRLIFGSVAQDIMRQSDYPMRVVPRD | not soluble
4 | MGSDKIHHHHHHMQQVFFQETEFLNSVIDYDHKVETENLCLDIAYGTDKNFLFGCGISIASILKYNEGSRLCFHIFTDYFGDDDRKYFDALALQYKTRIKIYLINGDRLRSLPSTKNWTHAIYFRFVIADYFINKAPKVLYLDADIICQGTIEPLINFSFPDDKVAMVVTEGQADWWEKRAHSLGVAGIAKGYFNSGFLLINTAQWAAQQVSARAIAMLNEPEIIKKITHPDQDVLNMLLADKLIFADIKYNTQFSLNYQLKESFINPVTNDTIFIHYIGPTKPWHDWAWDYPVSQAFMEAKNASPWKNTALLKPNNSNQLRYSAKHMLKKHRYLKGFSNYLFYFIEKIKH | not soluble
5 | MGSDKIHHHHHHMALTQLEQPLSPQPTPPDLRGYEYDLVIVGGGIIGLTLASALKDSGLSILLIEAKVASAAVAKGQAYAVHQLSALIYQGIGVWDKILPQIAKYRRVRLSDADYPNVVEFTTDDIHTAELGYVAEHQALLQPLQEFVQDCPNVTYLCPAEVVNTQYQKDIVAVDIKVADQLYTVRSKLLIAADGARSPIRQAAGIKTSGWKYWQSCIVAFVKPEKPHNNTAYERFWSSGPFAILPLPENRCRIVWTAPHEEAKALCALDDEQFLAELTRRYGDQMGKLELLGDRFVFQVQLMQSDRYVLPRLALIGDAAHNCHPVGGQGLNLGIRDAAALAQVIQTAHQAGKDIGDIQILKGYERWRKLENLTILGFTDLLDRMFSNNFLPVVVVRRLGLWFLQRVPLLKVFMLKLMIGLKGRTPELAKR | not soluble
6 | MTATPVLALSEFQGAPAPIAGEQNAAPGDEAEEAAPEERTPLEIPMPDPLVDRTAVELKDDEIAAPDVVEPVEVLTDVSKIPVPVARMRELIVEAAASGDIERLRPLLGKGPTQTQVTATAGEDDPIAALKSLSGDQDGIEILAILLDVMSTGFVLADKGTPEEAYVWPYFAEKPLSSLTAPEKVDLFRLVTAGDFAGMEEFGTYNFYRVGITPDGKWKFFVAGD | not soluble
7 | MKNSVDRELPAELMTKLNYQGFESTEIGHPEIQRVAPKVHVSTGDNKVVDSVADVVKATVKDGMTISFHHHFRNGDFVFNQVMRAIIDAGIKDLTLAPSSLTGVMNDMVIEAIKAGTITNITSSGMRGSLGDFVSHGGLKNPVIFRSHGNRARAIEHGDIKIDVAFLGVPNADRLGNANGMAGKAVFGSLGYALMDAQYANQVVLLTDNIVAYPNTPASIKQTQVDYVVQVDQVGDPDKIGSGATRFTKDPKELKIAQTVNNVIVNSPYFKNGFSFQTGSGGAALAVTRYLRQAMLDNQIKASFALGGITKPTTDLLEEGLVDKVMDVQDFDKGAAASMHANPNQQEIDASWYADPDNKGAMVDQLDVAILSALEIDTHFNVNVMSGSDGVIRGAIGGHQDAATAKLTIISAPLVRGRLATIVPEVTTVVTPGDSIDVVVTEYGIAINPRRQDLVKALSHVPGVPVYMIEELQQLAEKKVGQPQPLEFTDRTVALIEYRDGTIIDTIKAVKDLEHHHHHH | not soluble
8 | MSDFLKDCFQKIGWEKDHVSFGDLPLFLKAMAYRFPFENRAVLAKENYKITKEELWRRLLKDQHGGLCYDLNGFLYFVLREAGFHVKLIRGTVYAGDQEGWALEGTHAAVWLSAENGDYLVDIGFGINLALQPIPLSGETVQSPVGSFRIKKEETEKGSYVLLMDKGEGWQIGYAFTLEESDLGDLDNMKDIIHSHEKSPFNKSLLASKLTPSGRMVMSERHFTIYENGGNIQKSDIGPSGFEEKLNTH | not soluble
9 | MGSDKIHHHHHHMAQEALCRKRHEGFNGSMVGVSLADLIQLKGTNRFSGCISVEFGGRCGVIFFQDGEIVHAEKGSCEGEEALQRIMRWPGGRFTAYPHLATDRHSIRKNRQHLLLDAHRAMDERHRHVDPKGERAEQTPLRERIRAIGMVSDAITLDFDGVPTDEKSPSADRLAAGACFLARLADRIGSRLGTGSPTSMVLEGTREHLFIYTGKHHLLAVAAGADHQPPMVEEAIRRAVQTA | not soluble
10 | MSLKVLKKEELVPTLYQLFSQAKEKVLVVSAWIRGSIFKELLSLLPENVQLEVIVRAGNLSDMDITDEAFFRETKKKGGRILLNPKLHSKFLIIDERYAVVGSSNITFMGLYPEGNVETNVLIEEKEKVKELLEFYENLKEESVDYTDVVGYAVSSRSPKEAEIVLLEDLKEQTYLGIQGEEFFLCRLSNVSGKKETREDALNRILSSEVWDWKVAALFAHLYERPEIKTGRLEILGEYEKERNLFKTPTKSVESGSLVKKLEPESEELKRILFKNHSGYDMKYPTYLGKLYNTEVKAYLDMDKVLGMHMAVLGTTGSGKTTFVKKILKNFKESEVIIFDIYGEYAQELGAKEVIVENVLMPISVEDVKDYLKEAGSTLEERSTEEKEFFSVFRRALKPDIEATELKEKSFKEIYEEAVKNLHSLHLKQDAQSVYEHLERTYSRGALEQQPKVLKEVVDFLNSEERVKVFNFKEVDITETKVNLTGLILKEIFIRAKKDRKPRLIVIEEAQNVAPERGTGDVPSGKENVAFVYAKKIAMEGRKLNLGLIAITQRPANLSKFILSQLNTQVIFKLITKNDLDAVSPFFEYSKEDIFRLLPFLKPGTAFVSGLAVPFSFLFQMEEIPYYEGHHHHHH | not soluble
11 | GSSCGNDESDPDSTVTIAMATVEKQPQYDAPYLVLDNGEKLWVVQHIVPYRDLKAGERIFGNYSFLEAGESGFAYNIRLNDYTLVPVQKIIGLNPDNMDSIGNMKVQIKDMWPSDDYLNVRFMLNFPSPQKPILNLVVNEMIPWTKDGYAHLELRYNNNGSQGRLVPGMVSFKLDDYSPENSELKGIKVLVNPVDGEEKTYIFSYPLTGEDVPGFNPLDLAELK | soluble
12 | MKRISYIEDFEQWESGFSFYNPVKVRFGEVDMFGHVNNVVAFTYFEEARIALFKELGFMQEWTHASSETMIVVADLQCNFIKQIYFDEQLKVYVKAGSVGNSSLDLHYMVKNAEGEICLVGRGMMVQASKKTGRGEPWPEEWKKKLLQ | soluble
13 | MGSDKIHHHHHHMEFSAKQIAAFIQGEIIGDENATVHTFAKIEEGMPGAISFLSNPKYTPYIYETQSSIVLVNKDFVPEHEIRATLIKVDNAYESLAKLLNLYEMSKPKKQGIDSLAYIAPSAKIGENVYIGAFAYIGENAVIGDNTQIYPHTFVGDGVKIGNGCLLYSNVNVYHDCRIGNECILHSGAVIGADGFGFAPTPNGYDKIPQIGIVILEDKVDIGANTCVDRATMGATIIHSGAKIDNLVQIAHNDEIGSHTVMAAQVGIAGSAKIGEWCMFGGQVGIAGHITIGDRVNLGAQSGIPSSIKADSVLIGTPPMEPKAYFKAAVVTKNLPDMQKEIRNLRKEVEELKQLLNK | not soluble
14 | MFRREIQERENWRELARQFGFGFHSMYGQPYWDESAYYQFTLEQIEHDLESPTEELHQMCLSIVDEVVRCEQLLTKCAIPELMWEQVASSWQRKEPSLYSRLDFAYNGTSPAKLLENNADTPTSLFETGFWQWVWLEDVVNKGRIHQAADQFNILQDFLIERFAEIAKYQPGQTLHFSCCKYTEEDKATVQYLEDCAREVGLATAFVYVEDIGVTEDGKFVDVDRRAIRWMFKLYPWEFMFEEEYAKYLATANVNWLEPMWKSILSNKALLPLLWERFPNHPNLLPAYFANDPNASCLNDYVIKPLFSREGANIEIVKDGKRLVKTPGPYESKFNIVQKYHPLPKFGQNHTLIGSWLVNDRAAGISIREDSSLVTQDMARYIPHVILT | not soluble
15 | MGSDKIHHHHHHMIKLAQPQAQRLVLLLAGAVRSVLLYPGSHPAVVQQFAHLGSHVTELLRAYPEVRIGIIDGVLFCENHLFFTPTAAEEELAALLTNRHVEAVAFRAGLTPLELERFVELLTRRELLGEQLVAEVKRAGIAAISVELCGSGATEDHSQGDDEYDPGTTYREALDVVTGLFSEVEKGRIPSSDKLRGVVDRMATMIMQDRATLLGLAMIKDYDNYTFCHSVNVGILSMSLGAAAGLQRDELGELGMAGFLHDVGKTRVEITILNKPGRLSSDEYERMKMHSEEGARIVGEMPGVGERIARAVLGHHIRFDRAGYPESARALAFDRFCDIIAVADCYDAITTLRVYKSPLNPKDALLKLRSLAGSHLDSGLVQAFTEMMGRYPVGTLVRLDTNEVAVVFRPDPNGGERPVVKVVADPAGRLLDPAHMKNLARETGTRIVSVVDPLMTAIDVNRYLG | not soluble
16 | MAHHHHHHMIFIHSLRLRHNLVSKNVERCTVFAFLDADFITAIRHKVRELKRAARRQPHRSALEVYSQERPTRHHVLPPPHYFSEKVGVDCCVLYIPEVEDFPLLDAFFFVNSNPVTLVGLRMATAGEHHTTASTVRQFTECLAAYFNGWEELSRDMSWETIYVQHADSTPMNDWQRCDVVNSDNVSKKENREIVAFWEEEVHQYLAVISSADARRGEAL | not soluble
17 | MGSDKIHHHHHHMNEIVKLISKHNDVRTGAINLIVSENRMSPAALAALSSDLASRYAAPFYAGTDISQEIVAITEQKAKKLFNAEYVNISPISGSASLMAVVFALTSPGDKVGRVPPFFPGGGYPFNYEVFDRVSLPLPFDDEEWQLDLEATLELLEREKPKLVILGASIFTVPMPVREVADLVHSYGGIVAYDGSHSLGLIVGKQYQDPLNEGADILFGSTHKTFPGPQGGIIVTNSKELNDRIDIVSNFTPLNGPTMICNPHLARIASLGIVIDEVPWERYAEQVVKNSRAFANTLQAKGYEMRGQSTKKFSELSYCHQVLPKLDRQMGQGYRDKLKQHNIHVDGFMRVGTAEITRLGYVEADCTRISEIMAEIVSSNQDVIPSLRHEVVEMNANHQHIVM | not soluble
18 | MIEVIFLGTGGIKPTPERNVPSIAIKIGGEIILFDVGEGTLRQMEIARISPMKIKRVFITHFHGDHYLGLPALIQTMSLWKRKDPLHIYGPEGSSTFLQNLLNSGYFAPSFDILVHEISGKSRLKFKEYEVWAFEVSHGVPALGYVFKEKDKRGNFNLKKIKELGLEPGPWMKELERQKIIEINGKIVRLLEVTGPKKRGAKVVYSGDTEPCDEVIEFSRRGTLLIHEATYVNEEDRKDSYHTTIEEACEIWKKSKARKLVLFHRSPRYSFKEYKEKALSICPQAIIPRDFDRIAIEGAGDVLFKIR | soluble
